This note sets out measurements from paper PMC7952133.

For assay [1], the target named is HIV-1 myristoylated matrix (MA) A45E mutant protein (HIV-1 (pNL4-3 strain)). The experiment in a line: AUC; sedimentation equilibrium, 22,000, 26,000 and 30,000 rpm, 20 °C, pH 5.5, 50 mM sodium phosphates, 100 mM NaCl, 2 mM TCEP; global fit to a monomer–trimer equilibrium model (monomers to trimer), monomer mass 15.6 kDa and n = 3 fixed.
Assay [2] deals with HIV-1 myristoylated matrix (MA) L75G mutant protein (HIV-1 (pNL4-3 strain)). Described as above.
Assay [3] concerns the target HIV-1 myristoylated matrix (MA) Q63R mutant protein (HIV-1 (pNL4-3 strain)). The description is as above.
Assay [4] addresses HIV-1 myristoylated matrix (MA) T70R mutant protein (HIV-1 (pNL4-3 strain)). The assay is described as above.
The target in assay [5] is HIV-1 myristoylated matrix (MA) protein, wild type (HIV-1 (pNL4-3 strain)). The assay is described as above.
The target of assay [6] is HIV-1 unmyristoylated matrix Q63R mutant protein (HIV-1 (pNL4-3 strain)). The experiment in a line: crystal structure; hanging-drop vapor diffusion, 40% PEG 400, 0.1 M sodium acetate (pH 4), 50 mM lithium sulfate; protein at 20 mg/ml; two crystal forms; molecular replacement with PDB 1HIW.

In assay [1], “HIV-1 myristoylated matrix (MA) A45E mutant protein (natural protein)” gave a Ka of 2.5e+07 M⁻¹ and a stoichiometry N of 3.

Regarding “HIV-1 myristoylated matrix (MA) L75G mutant protein (natural protein)”, in assay [2], the Ka worked out at 1e+07 M⁻¹ and the stoichiometry N was 3.

As for “HIV-1 myristoylated matrix (MA) Q63R mutant protein (natural protein)”, in assay [3], the Ka worked out at 2e+07 M⁻¹ and the stoichiometry N came out at 3.

In assay [4], “HIV-1 myristoylated matrix (MA) T70R mutant protein (natural protein)” returned a Ka of 2.8e+07 M⁻¹ and a stoichiometry N of 3.

In assay [5], “HIV-1 myristoylated matrix (MA) protein, wild type (natural protein)” yielded a Ka of 2e+07 M⁻¹ and a stoichiometry N of 3.

For “HIV-1 unmyristoylated matrix Q63R mutant protein (natural protein)”, the stoichiometry N in assay [6] came out at 3.
